“Also recorded” adds a separate entry of the source. One block for each molecule: values may come before it. Where a SMILES comes first, the peptide text is derived from it. Bridges are numbered along the chain shown (N, C = ends). Where no end group is shown, it is not given here.
Legend:
PD-1/PD-L1 complex = molecular target: T1, PD-1/PD-L1 complex (Homo sapiens, UniProt Q15116); assay: AlphaScreen (PD-1/PD-L1 AlphaLISA binding kit), PD-1/PD-L1 complex formation; settings: for Residual Activity: AlphaScreen PD-1/PD-L1 complex formation; for Blocking of PD-1/PD-L1 complex formation: AlphaScreen, result in words
T1 construct: purchased PerkinElmer AL356HV
T1 sequence (Q15116 25-170 limits assumed, one chain of several): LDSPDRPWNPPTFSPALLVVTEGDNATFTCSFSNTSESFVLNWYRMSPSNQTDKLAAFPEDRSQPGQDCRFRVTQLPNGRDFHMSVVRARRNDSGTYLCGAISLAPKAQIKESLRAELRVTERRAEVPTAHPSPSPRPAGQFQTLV
Protocol: Peptides were screened using the PerkinElmer PD-1/PD-L1 (human) AlphaLISA Binding Kit (Waltham, MA, USA, Cat. No. AL356HV) according to the manufacturer's instructions. […] Briefly, peptides were resuspended in assay buffer with 4% dimethyl sulfoxide (DMSO) to make 4× stock solutions of 400 μM. […] Lastly, the 4× mixture of anti-His Acceptor beads and streptavidin Donor beads were prepared in the dark. […] The plate was incubated in the dark for 90 minutes at room temperature and luminescence was measured using a Tecan Spark multimode plate reader (Männedorf, Switzerland). For data analysis, a control with beads alone was subtracted from each well for background correction. Data analysis was conducted using GraphPad Prism version 9 (La Jolla, CA, USA).

[1] = Human serum was diluted 1:4 in Gibco RPMI 1640 media; settings: room temperature (serum incubated at 37° C. for 15 minutes prior to time course); for fragment found: up to 6 hours
[2] = system: human PBMCs co-cultured with OVCAR8 cells; assay: Co-culture of OVCAR8 cells and stimulated human PBMCs, 1:10 OVCAR8:PBMC ratio; type: cell-based; settings: for Immunosuppressive effect (reduction in TNFα/cytokines) compared with controls rPD-L1 and MN_Null: 1:10 OVCAR8:PBMC co-culture, FIG. 10D
Protocol: For this model, PBMCs and cancer cells were both stimulated prior to co-culture to promote expression of PD-1 and PD-L1, respectively.
OVCAR8 cells, generously provided by the Gottesman Lab (National Institutes of Health, Bethesda, MD, USA), and MDA-MB-231 cells (American Type Culture Collection, Rockville, MD, USA) were cultured in Gibco RPMI 1640 media (ThermoFisher Scientific, Cat. No. 11-875-093) supplemented with 10% Gibco fetal bovine serum (ThermoFisher Scientific, Cat. No. 10437028), and 1% penicillin/streptomycin (10,000 U/mL pen, 10 mg/mL strcp) from MilliporeSigma (Burlington, MA, USA, Cat. No. P4333). Cells were cultured at 37° C. and 5% CO2. Passage number was kept below 3 for co-culture assay. Human peripheral blood mononuclear cells were purchased frozen from […] PBMCs were thawed according to manufacturer's instructions one day before co-culture and cultured in the same media and conditions as cancer cell lines.
The next day, cells were stimulated with 100 ng/mL IFNγ and two vials of human PBMCs were thawed. On Day 3, concentrations of PBMCs and OVCAR8 cells (harvested from a control well) were measured using the QuadCount Automated Cell Counter. The concentration of PBMCs required for a 1:10 OVCAR8:PBMC ratio was calculated from the OVCAR8 concentration. PBMCs were plated on a separate 24-well plate (1 mL/well) and stimulated with 5 μg/mL of anti-CD3 and 5 μg/mL of anti-CD28 for 30 minutes before drug treatment. […] After 30 minutes, media was removed from OVCAR8 wells without treatment, and replaced with 1 mL of treated PBMCs. After 24 hours, the supernatants were collected from each well, and centrifuged at 10,000×g for 5 minutes to remove any remaining cells.
Briefly, samples from co-culture experiments with excess OVCAR8 ratios were diluted 1:10 in assay buffer, and samples from co-culture experiments with excess PBMC ratios were diluted 1:5 in assay buffer. Next, 10 μL of the diluted samples were mixed with 10 μL of an IL-2 antibody-oligonucleotide conjugate mixture and added to a 96-well working plate. Samples with excess OVCAR8 ratios were allowed to incubate overnight at 4° C. Samples with excess PBMCs were allowed to incubate for 1 hour at room temperature. Next, 80 μL of qPCR reaction mixture containing master mix and DNA ligase was added to each well. The plate was centrifuged at 2,500×g for 2 minutes. Samples were then added in triplicate (20 μL/well) to a 96-well PCR plate (ThermoFisher Scientific). PCR was run according to manufacturer's instructions using the QuantStudio 7 Pro Real-Time PCR System equipped with a 96-well, 0.2 mL block from ThermoFisher Scientific.
Remaining samples from experiments with excess PBMC ratios were analyzed using TNFα (Cat. No. 430204) ELISA MAX Deluxe Sets (BioLegend, San Diego, CA, USA) according to manufacturer's instructions. Briefly, 96-well Nunc™ MaxiSorp™ ELISA Plates (BioLegend, Cat. No. 423501) were coated with capture antibodies for TNFα and incubated overnight at 4° C. The next day, the plate was washed 4× with 1×PBS+0.05% Tween-20 (PBS-T). To block non-specific binding, 200 μL of assay dilutant buffer was added to each well and the plate was incubated at room temperature for 1 hour on a shaker. The plate was washed as before, and 100 μL of the samples or standards were added to each well in triplicate and incubated at room temperature for 2 hours on a shaker. The plate was washed 4× and 100 μL of detection antibody for TNFα was added to each well, and the plate was incubated at room temperature for 1 hour on a shaker. The plate was washed 4× and 100 μL of Avidin-HRP was added to each well, and the plate was incubated at room temperature for 30 minutes on a shaker.

[3] = human serum diluted 1:4 in RPMI, ESI-MS, 0, 6, 24, 48 hours
Protocol: Angiotensin I was spiked in and used for normalization.
Human serum was diluted 1:4 in Gibco RPMI 1640 media (ThermoFisher Scientific, Waltham, MA, USA, Cat. No. 11-875-093) for a total of 1 mL and incubated at 37° C. for 15 minutes prior to time course. Next, 1 μL of the peptide stock was added to warmed serum for a final concentration of […] in the master mix. The rest of the time course was performed at room temperature. For each time point, aliquots of 100 μL were removed from the master mix and added to 200 μL of 3% trifluoroacetic acid. Samples were incubated on ice for 15 minutes before centrifugation at 16,000×g for 2.5 minutes. Supernatants were transferred to a clean tube and prepared for desalting via C18 column by adding 100 μL of sample buffer (20% acetonitrile, 2% trifluoroacetic acid) to supernatants before storage at—20° C. overnight. Samples were then processed through Pierce C18 spin columns (ThermoFisher Scientific, Cat. No. 89870) according to the manufacturer's instructions. […]
For ESI-MS analysis, serum stability samples were run on an Orbitrap Exploris 480 (ThermoFisher Scientific). […] ThermoFisher's Xcalibur 4.0 Data System was used for peptide quantification. […] The samples were batch reprocessed for quantification via peak area. Peptide abundances were normalized based on Angiotensin I abundance and quantified relative to initial abundance.

[4] = molecular target: T2, biotinylated PD-1 of the PerkinElmer PD-1/PD-L1 (human) AlphaLISA Binding Kit (human, UniProt Q15116 25-167, limits assumed, biotinylated (site not stated)); assay: AlphaScreen (PerkinElmer PD-1/PD-L1 human AlphaLISA binding kit): peptide titrated against biotinylated PD-1 and His-tagged PD-L1; readout percent activity (PD-1/PD-L1 complex formation)
T2 construct: Bought kit reagent
T2 sequence (Q15116 25-167 limits assumed): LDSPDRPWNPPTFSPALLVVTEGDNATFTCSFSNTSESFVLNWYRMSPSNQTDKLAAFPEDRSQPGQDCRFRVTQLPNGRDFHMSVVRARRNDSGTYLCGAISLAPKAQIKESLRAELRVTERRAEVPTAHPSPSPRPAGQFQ
Protocol: (§1) Briefly, peptides were resuspended in assay buffer with 4% dimethyl sulfoxide (DMSO) to make 4× stock solutions of 400 μM. […] Lastly, the 4× mixture of anti-His Acceptor beads and streptavidin Donor beads were prepared in the dark. Peptides were then added in duplicates of 10 μL to a white 96-well ½-AreaPlate (PerkinElmer, Cat. No. 6005560) at 7 different concentrations from 1 nM to 100 μM. […] The plate was incubated in the dark for 90 minutes at room temperature and luminescence was measured using a Tecan Spark multimode plate reader (Männedorf, Switzerland). For data analysis, a control with beads alone was subtracted from each well for background correction. Data analysis was conducted using GraphPad Prism version 9 (La Jolla, CA, USA).

[5] = molecular target: T2, biotinylated PD-1 of the PerkinElmer …; assay: AlphaScreen (PerkinElmer PD-1/PD-L1 human AlphaLISA binding kit): peptide titrated against biotinylated PD-1 and His-tagged PD-L1; readout percent PD-1/PD-L1 binding
Protocol: as §1

Residual Activity (PD-1/PD-L1 complex): 62.87%
Molecule: CRALIAYKGADYKRIC (disulfide 1-16) [SEQ ID NO. 8]

Molecule: YRCMISYGGADYKRITV
fragment found [1]: cysteinylated peptide, major, 15 minutes; also recorded: oxidized MN 1.1, minor, time 0

Molecule: Pembrolizumab [reference compound]
TNFα levels ([2]; 1:10 OVCAR8:PBMC, 24 hours, ELISA, vs untreated co-culture control, FIG. 10C): did not have this effect
IL-2 levels ([2]; 1:10 OVCAR8:PBMC, 24 hours, vs untreated co-culture control, FIG. 10B): did not have this effect

Residual Activity (PD-1/PD-L1 complex): 45.77%
Molecule: CRAMISYKGADYKRIC (disulfide 1-16) [SEQ ID NO. 7]

Molecule: YRCMISNGGADYKRITV (Ac-YRCMISNGGADYKRITV-NH2) [SEQ ID NO. 3]
Blocking of PD-1/PD-L1 complex formation (PD-1/PD-L1 complex): mutation of Y7 is tolerated

Residual Activity (PD-1/PD-L1 complex): 82.74%
Blocking of PD-1/PD-L1 complex formation (PD-1/PD-L1 complex): lost activity
Molecule: CRAXISYGGADYKXIC (norleucine at position 4; SITE 4 Nle; DISULFID 1..16 Intra chain disulphide formation; SITE 14 N-methyl arginine) [SEQ ID NO. 6]
Blocking of PD-1/PD-L1 complex formation (PD-1/PD-L1 complex; listed as MN1.5): abolished the ability of MN1.1 to block PD-1/PD-L1 complex formation

fragment found [1]: oxidized MN1.4
not cleaved ([1]; up to 48 hours): not significantly degraded at 48 hours
Molecule: NH3-CRAMISYGGADYK-(N-Me-Arg)-IC—COOH

Molecule: CC[C@H](C)[C@@H]1NC(=O)[C@H](CCSC)NC(=O)[C@H](C)NC(=O)[C@H](CCCNC(=N)N)NC(=O)[C@H](Cc2ccc(O)cc2)NC(=O)[C@@H](N)CSSC[C@@H](C(=O)O)NC(=O)[C@H](C(C)C)NC(=O)[C@H]([C@@H](C)O)NC(=O)[C@H]([C@@H](C)CC)NC(=O)[C@H](CCCNC(=N)N)NC(=O)[C@H](CCCCN)NC(=O)[C@H](Cc2ccc(O)cc2)NC(=O)[C@H](CC(=O)O)NC(=O)[C@H](C)NC(=O)CNC(=O)CNC(=O)[C@H](Cc2ccc(O)cc2)NC(=O)[C@H](CO)NC1=O [SEQ ID NO. 4] (H-CYRAMISYGGADYKRITVC-OH; disulfide 1-19)
Degradation in serum [3]: present at very low levels after 48 hours
IC50 (PD-1/PD-L1 complex): < 10 µM

Molecule: YRCMISYGGADEKRITV [SEQ ID NO. 14]
Immunosuppressive effect (reduction in TNFα/cytokines) compared with controls rPD-L1 and MN_Null ([2]; listed as MN-Null): did not show a significant reduction
Immunosuppressive effect (reduction in TNFα/cytokines) compared with controls rPD-L1 and MN_Null ([2]; listed as MN_Null): less immunosuppressive activity as compared to MN1.4; also recorded: little immunosuppressive effect

IC50 (read off the curve) [4]: ~10 µM
Molecule: CRAMISYKGADYKRIC (disulfide 1-16) [MN 3.2]

IC50 [5]: 17.4 µM
B1: MN 2.1 (peptide)
peptide: Ac-YRCMISNGGADYKRITV-NH2
modifications: not fully specified
notes: the text speaks of Y7Q for the computation

IC50 (read off the curve) [4]: ~10 µM
Molecule: CRALIAYKGADYKRIC (disulfide 1-16) [MN4.2]

Source: US20240327493A1 (GEORGE MASON UNIVERSITY, priority 2023, published 2024)
